Patent publication US20180258181A1 (Bayer, published 2018)
Residue numbers refer to the chain shown, from its start. Blank lines part the entries; values can stand above or below the binder they belong to.

Key:
[1] = biological target: T1, human mesothelin (recombinant, soluble, purified; 40 kDa C-terminal polypeptide of the mesothelin precursor) (human, UniProt Q13421 296-598, limits assumed); assay: SPR (Biacore), Fab on directly immobilized mesothelin
T1 construct: also called soluble mesothelin
T1 sequence (Q13421 other isoform, or with tags, fused parts or gaps limits assumed): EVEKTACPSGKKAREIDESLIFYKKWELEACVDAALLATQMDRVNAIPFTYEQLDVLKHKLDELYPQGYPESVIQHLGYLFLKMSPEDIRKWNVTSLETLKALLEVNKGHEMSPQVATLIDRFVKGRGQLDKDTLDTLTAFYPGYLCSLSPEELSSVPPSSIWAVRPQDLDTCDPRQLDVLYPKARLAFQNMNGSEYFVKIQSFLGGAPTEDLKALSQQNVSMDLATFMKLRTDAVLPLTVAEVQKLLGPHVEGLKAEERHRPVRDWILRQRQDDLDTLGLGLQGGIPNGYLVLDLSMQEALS

[2] = biological target: T1, human mesothelin (recombinant, soluble, …); assay: SPR (Biacore 3000), Fab on covalently immobilized human mesothelin
[3] = biological target: T2, murine mesothelin (recombinant) (murine, UniProt Q61468 298-600, limits assumed); assay: SPR (Biacore 3000), Fab on covalently immobilized murine mesothelin
T2 construct: Covalently immobilized on the Biacore chip
T2 sequence (looked up): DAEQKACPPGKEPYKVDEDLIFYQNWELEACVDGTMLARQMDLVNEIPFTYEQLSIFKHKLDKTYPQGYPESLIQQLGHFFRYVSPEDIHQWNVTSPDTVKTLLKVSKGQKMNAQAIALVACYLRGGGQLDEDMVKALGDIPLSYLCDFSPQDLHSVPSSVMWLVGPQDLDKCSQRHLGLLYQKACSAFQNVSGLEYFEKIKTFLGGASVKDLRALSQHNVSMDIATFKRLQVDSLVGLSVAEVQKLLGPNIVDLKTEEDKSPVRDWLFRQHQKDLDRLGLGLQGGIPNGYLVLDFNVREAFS
Experimental: Shown in Table 5 are results of Biacore and ELISA studies showing cross-reactivity of antibodies of the invention to murine mesothelin. The kinetic constants kₒₙ and koff were determined with serial dilutions of the respective purified Fab fragment binding to covalently immobilized human or murine mesothelin using the Biacore 3000 instrument (Biacore, Uppsala, Sweden). Covalent antigen immobilization was achieved by a standard EDC-NHS coupling procedure. Kinetic measurements were done in PBS, pH 7.2 at a flow rate of […] using Fab concentration ranging from 1.5-500 nM. Injection time for each concentration was 1 min, followed by 3 min dissociation phase. For regeneration 5 μl 10 mM glycine buffer, pH 1.8 was used. All sensograms were fitted using the BIA evaluation software 3.1 (Biacore).

[4] = biological target: T3, mesothelin on NCI-H226 cells (UniProt Q13421 296-598); assay: FACS titration, IgG on NCI-H226 cells
T3 construct: whole, on cells; In the immunoblots the protein stood in a denatured cell extract
T3 sequence (Q13421 other isoform, or with tags, fused parts or gaps limits assumed): as the sequence (Q13421 other isoform, or with tags, fused parts or gaps limits assumed) above
Experimental: FACS titration was performed in a 96 well microtiter plate, in which serial dilutions of the primary antibody in a volume of 80 μl of FACS buffer (3% FCS, 0.02% NaN₃ in PBS) were mixed with 20 μl of a cell suspension consisting of 10⁶ cells/ml which had been detached with accutase or trypsin/EDTA, and resuspended in FACS buffer. Incubation was performed at 4° C. for 1 hour with agitation. Cells were washed twice with FACS buffer and resuspended in 100 μl/well of anti-human PE conjugate solution in FACS buffer. Incubation and washing was performed as before. Analysis of cell-bound antibodies was done using the FACS Array device. EC₅₀ values were determined from fluorescence medians of duplicates using Prism 4.0 software (GraphPad) applying non-linear regression fit.

B1: MF-226 Fab (Fab, V domains shown)
VH: QVELVQSGAEVKKPGASVKVSCKASGYTFTGNYINWVRQAPGQGLEWMGIINPHGGDTKYAQKFQGRVTMTRDTSISTAYMELSSLRSEDTAVYYCARWHHGTWIFDYWGQGTLVTVSS
VL: DIVLTQPPSVSGAPGQRVTISCSGSSSNIGSNYVSWYQQLPGTAPKLLIYNDNQRPSGVPDRFSGSKSGTSASLAITGLQSEDEADYYCSTYDRRTFSVFGGGTKLTVLG
notes: Purified Fab
Kd [1]: 58 nM | koff [1]: 0.038 s⁻¹ | Kd [2]: 58 nM | koff [2]: 0.038 s⁻¹ | Kd [3]: 1280 nM | koff [3]: 0.14 s⁻¹

B3: MOR06626 IgG (antibody, V domains shown)
VH: B1 VH with E3Q, H54T, G55K, D57W, K59L
VL: B1 VL
EC50 [4]: 0.44 nM

B5: MOR06626 Fab (Fab, V domains shown)
VH: B1 VH with E3Q, H54T, G55K, D57W, K59L
VL: B1 VL
notes: Purified Fab
Kd [1]: 0.67 nM | koff [1]: 0.0012 s⁻¹ | Kd [2]: 0.67 nM | koff [2]: 0.0012 s⁻¹ | Kd [3]: 6.7 nM | koff [3]: 0.0098 s⁻¹

B8: MF-J Fab (Fab, V domains shown)
VH: QVELVQSGAEVKKPGESLKISCKGSGYSFTNYWIGWVRQMPGKGLEWMGVIMPSDSYTRYSPSFQGQVTISADKSISTAYLQWSSLKASDTAMYYCARYGHGMYGGALDVWGQGTLVTVSS
VL: DIVLTQSPATLSLSPGERATLSCRASQSVRSSRLAWYQQKPGQAPRLLIYGASKRATGVPARFSGSGSGTDFTLTISSLEPEDFATYYCQQYYDFPPTFGQGTKVEIKR
notes: Purified Fab
Kd [1]: 9.2 nM | koff [1]: 0.0029 s⁻¹

B9: MOR06640 IgG (antibody, V domains shown)
VH: B8 VH with E3Q
VL: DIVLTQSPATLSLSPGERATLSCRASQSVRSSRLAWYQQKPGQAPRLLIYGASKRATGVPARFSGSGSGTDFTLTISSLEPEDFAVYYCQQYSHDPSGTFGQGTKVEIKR
EC50 [4]: 0.63 nM

B10: MOR06631 IgG (antibody, V domains shown)
VH: B8 VH with E3Q, V50F, M52W, S54V, Y57W, R59Q
VL: B8 VL
EC50 [4]: 2.02 nM

B13: MOR06631 Fab (Fab, V domains shown)
VH: B8 VH with E3Q, V50F, M52W, S54V, Y57W, R59Q
VL: B8 VL
notes: Purified Fab
Kd [1]: 0.09 nM | koff [1]: 1.4e-05 s⁻¹

B17: MF-A Fab (Fab, V domains shown)
VH: QVQLVQSGAEVKKPGSSVKVSCKASGGTFSSYYFSWVRQAPGQGLEWMGGIIPKFGSANYAQKFQGRVTITADESTSTAYMELSSLRSEDTAVYYCARRTSMDYWGQGTLVTVSS
VL: DIALTQPASVSGSPGQSITISCTGTSSDVGGYNYVSWYQQHPGKAPKLMIYSVSKRPSGVSNRFSGSKSGNTASLTISGLQAEDEADYYCGAWAHMSLGKVFGGGTKLTVLG
notes: Purified Fab
Kd [1]: 19 nM | koff [1]: 0.079 s⁻¹ | Kd [2]: 19 nM | koff [2]: 0.079 s⁻¹ | Kd [3]: 670 nM | koff [3]: 0.27 s⁻¹

Continued, values first:

Kd [1]: 16 nM | koff [1]: 0.0063 s⁻¹ | Kd [2]: 16 nM | koff [2]: 0.0063 s⁻¹ | Kd [3]: 320 nM | koff [3]: 0.04 s⁻¹
B2: MOR06638 Fab (Fab, V domains shown)
VH: B1 VH with E3Q
VL: DIVLTQPPSVSGAPGQRVTISCSGSSSNIGSNYVSWYQQLPGTAPKLLIYNDNQRPSGVPDRFSGSKSGTSASLAITGLQSEDEADYYCSSWDRADGSYVFGGGTKLTVLG
notes: Purified Fab

EC50 [4]: 0.19 nM
B4: MOR06638 IgG (antibody, V domains shown)
VH: B1 VH with E3Q
VL: B2 VL

Kd [1]: 0.36 nM | koff [1]: 0.00028 s⁻¹
B6: MOR06643 Fab (Fab, V domains shown)
VH: QVQLVESGGGLVQPGGSLRLSCAASGFTFSDYAMSWVRQAPGKGLEWVSAIMYDSSSTFYADSVKGRFTISRDNSKNTLYLQMNSLRAEDTAVYYCARINYIYKGVHFDYWGQGTLVTVSS
VL: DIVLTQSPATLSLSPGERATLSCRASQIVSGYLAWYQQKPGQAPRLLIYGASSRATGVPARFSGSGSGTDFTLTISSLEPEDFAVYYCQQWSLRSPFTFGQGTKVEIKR
notes: Purified Fab

EC50 [4]: 0.23 nM
B7: MOR06643 IgG (antibody, V domains shown)
VH: B6 VH
VL: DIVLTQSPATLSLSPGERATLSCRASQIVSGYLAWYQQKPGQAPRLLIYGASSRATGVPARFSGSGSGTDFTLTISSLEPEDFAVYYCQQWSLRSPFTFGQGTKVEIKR

EC50 [4]: 0.41 nM
B11: MOR06669 IgG (antibody, V domains shown)
VH: B8 VH with E3Q, V50I, M52W, S54I, Y57F, R59Q
VL: B8 VL

Kd [1]: 0.24 nM | koff [1]: 8.1e-05 s⁻¹
B12: MOR06669 Fab (Fab, V domains shown)
VH: B8 VH with E3Q, V50I, M52W, S54I, Y57F, R59Q
VL: B8 VL
notes: Purified Fab

EC50 [4]: 1.11 nM
B14: MOR07265 IgG (antibody, V domains shown)
VH: B8 VH with E3Q, V50F, M52W, S54V, Y57W, R59Q
VL: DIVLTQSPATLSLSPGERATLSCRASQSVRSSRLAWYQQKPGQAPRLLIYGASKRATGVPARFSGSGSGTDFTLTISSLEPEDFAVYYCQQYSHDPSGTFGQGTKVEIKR

EC50 [4]: 0.58 nM
B15: MOR06642 IgG (antibody, V domains shown)
VH: B8 VH with E3Q
VL: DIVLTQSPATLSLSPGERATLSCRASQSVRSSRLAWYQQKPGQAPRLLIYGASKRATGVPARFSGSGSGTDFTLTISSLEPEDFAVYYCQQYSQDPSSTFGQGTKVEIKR

EC50 [4]: 0.8 nM
B16: MOR07111 IgG (antibody, V domains shown)
VH: B8 VH with E3Q
VL: B8 VL with T86V, Y92F, D94S, F95K, P97I

EC50 [4]: 0.14 nM
B18: MOR06657 IgG (antibody, V domains shown)
VH: B17 VH
VL: B17 VL with G91A, A92T, A94D, M96S, S97Q, L98M

Kd [1]: 0.95 nM | koff [1]: 0.0055 s⁻¹ | Kd [2]: 0.95 nM | koff [2]: 0.0055 s⁻¹ | Kd [3]: 360 nM | koff [3]: 0.16 s⁻¹
B19: MOR06657 Fab (Fab, V domains shown)
VH: B17 VH
VL: B17 VL with G91A, A92T, A94D, M96S, S97Q, L98M
notes: Purified Fab
